Experiment: yeast display, Sf9 membrane polyspecificity reagent, FACS + sequencing; frameworks hold sequencing errors
How it was run: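 Polyreactivity labels are assigned by the sorting gate from which each nanobody was recovered. The gates were low and high (top ~1%), set on anti-HA fluorescence for expression and streptavidin fluorescence for reagent binding. Before sorting, galactose-induced (36–48 hours) yeast display cells were stained for 1 hour at 4 °C with 10% biotinylated, detergent-solubilized Sf9 membrane reagent.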

| Sequence | polyreactivity (PSR sort gate) |
| --- | --- |
| QVQLVESGGGLVQAGGSLRLSCAASGSTFKVYAMRWYRQAPGKERELVARISTRVGSTYYADSVKGRFTISRDNAKNSVYLQMNSLKAEDSAVYYCNARWWDPPYYYWGQGTQVTVSS | high polyreactivity |
| QVQLVESGGGLVQAGGSLRLSCAASGSTFKVYTMGWYRQAPGKERELVAAITGGGGSTYYADSVKGRFTISRDNAKNTVSLQMNSLKPEDTAVYYCAAQKRGPGYPYYYWGQGTQVTVSS | high polyreactivity |
| QVQLVESGGGLVQAGGSLRLSCAASGSTFKWYAMGWYRQAPGKERELVAAITVSGDSTYYADSVKGRFTISRDNAKNTVYLQMNSLKPEDTAVYYCAKDYQGITPYDYWGQGTQVTVSS | low polyreactivity |
| QVQLVESGGGLVQAGGSLRLSCAASGSTFKWYGRGWSRQAPGKDRELVATINYSSSTTYYADSVKGRFTISRDNAKNTVYLQMNSLKPEDTAVYYCAKGVYWGTKSTYDYWGQGTQVTVSS | high polyreactivity |
| QVQLVESGGGLVQAGGSLRLSCAASGSTFKYNAMGWYRQAPGKERELDAAISSSGGSTSYADSVKGRFTISRDNAKNTVYLQMNSLKPEDTAVYYCAADSYPAYLGFVGFDYWGQGSQVTVSS | low polyreactivity |
| QVQLVESGGGLVQAGGSLRLSCAASGSTFKYNAMGWYRQAPGKERELVASISRSGGSTYYADSVKGRFTISRDNAKNTVYLQMNSLKPEDTAVYYCNVRRFVHYEYWGHGTQVTVSS | high polyreactivity |
| QVQLVESGGGLVQAGGSLRLSCAASGSTFKYNTMGWYRQAPGKKGELVAAITISGGTTRYADSVKGRFTISRDNAKNTVYLQMNSLKPEDTAVYYCAARVYTYYYDLHKRYYWGQGTQVTVSS | high polyreactivity |
| QVQLVESGGGLVQAGGSLRLSCAASGSTFKYYAMGWYRPAPGKERELVAAISGRGGRTYYADSVKGRFTISRDNAKNTVYLQMNSLKPEDTAVYYCNAPFLGAHHYGYEYWGQRTQVTVSS | high polyreactivity |
| QVQLVESGGGLVQAGGSLRLSCAASGSTFKYYAMGWYRQAAGKERELVATITRRSGSTYYADSVKGRFTISRDNAKNTVYLQMNSLKPEDTAVYYCNAYGPYKYNYWGQGTQVTVSS | high polyreactivity |
| QVQLVESGGGLVQAGGSLRLSCAASGSTFKYYAMGWYRQAPGKEMELVAAIRGGGSTNYADSVTGPFTISRDNAKNTVYLQMNSLKPEDTAVYYCAARYGWYRGYNYWGQGTQVTVSS | high polyreactivity |
| QVQLVESGGGLVQAGGSLRLSCAASGSTFKYYAMGWYRQAPGKERELVAAISASGGTTYYADSVKGRFTISRDNAKNTVYVQMNSLKPEDTAVYDCAARYLTTFSRTDMEYWGQGTQVTVSS | low polyreactivity |
| QVQLVESGGGLVQAGGSLRLSCAASGSTFKYYAMGWYRQAPGKERELVATITRRSGSTYYADSVKGRFTISRDNAKNTVYLQMNSLKPEDTAVYYCNAYGPYKYNYWGQGTQVTVSS | high polyreactivity |
| QVQLVESGGGLVQAGGSLRLSCAASGSTFLDNTMGWYRQAPGKEREFVAAISSSVYSTYYADSVKGRFSISRDNAKNTVYLQMNSLKPEDTAVYFCAADRGFYPSLWDYDYWGQGTQVTVSS | low polyreactivity |
| QVQLVESGGGLVQAGGSLRLSCAASGSTFLDYAMGWYRQAPGKERELVAGINSGGSTNYADSVKGRFTISRDNAKNTVYLQMNSLKPEDTAVYYCAADRVGNEYDYWGQGTQVTVSS | low polyreactivity |
| QVQLVESGGGLVQAGGSLRLSCAASGSTFLDYTMGWYRQAPGKERELVAVISYRAGSTYYADSVKGRFTISRDNAKNTVYLQMNSLKPEDTAVYYCNADYYNYWLRRRYVWYESWGQGTQVTVSS | low polyreactivity |
| QVQLVESGGGLVQAGGSLRLSCAASGSTFLGNAMGWYRQAPGKEREFVAAITVSGGSTYYADSVKGRFTISRDNAKNTVYLQMNSLKPEDTAVYYCAARYLRYSSKTIQNEDYWGQVTQVTVSS | high polyreactivity |
| QVQLVESGGGLVQAGGSLRLSCAASGSTFLGNAMGWYRQAPGKERELVAAISGRGGSTYYADSVKGRFTISRDNAKNTVYLQMNSLKPEDTAVYYCAAPLYHYVQYGYWGQGTQVTVSS | high polyreactivity |

— the nanobody polyreactivity screen of Harvey et al. (2022)
